# From patent US20190343964A1 (SHIZUOKA PERFECTURE, published 2019)
# How the values were obtained:
# [1] = molecular target: T1, soluble human B7-H4 recombinant protein (human, UniProt Q7Z7D3 25-259); experiment: ELISA, hybridoma culture supernatant diluted 2 times on immobilized free form of B7-H4
# T1 construct: also called a free form of B7-H4
# T1 sequence: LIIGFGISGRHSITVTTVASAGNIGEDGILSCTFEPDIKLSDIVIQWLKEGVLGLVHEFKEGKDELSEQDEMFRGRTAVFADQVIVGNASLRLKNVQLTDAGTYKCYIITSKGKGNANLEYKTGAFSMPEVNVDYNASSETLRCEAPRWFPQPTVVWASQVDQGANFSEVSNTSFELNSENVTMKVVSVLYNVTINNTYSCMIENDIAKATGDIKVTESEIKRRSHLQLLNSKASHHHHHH
# Procedure: Specifically, the free form of B7-H4 was added to a 96 well Immobilizer Amino Plate (Thermo Fisher Scientific) and incubated at room temperature for 2 hours to immobilize the free form of B7-H4 on the plate surface. Simultaneously, wells with no immobilization of the free form of B7-H4 were prepared as negative control. After incubation, the antigen that was not immobilized was removed and the wells were filled with PBS containing 3% BSA and incubated at 4° C. overnight. In this step, nonspecific binding capacity to the plate surface was blocked to produce a plate for ELISA.
# The culture supernatant of each of the plurality of hybridoma lines obtained in Example 2 was 2-times diluted with PBS containing 0.05% Tween20 to prepare a supernatant sample. The buffer was removed from the wells of the aforementioned plate for ELISA and then the supernatant sample was added and incubated at room temperature for 2 hours. The plate was washed to remove the unbound antibody and then a horseradish peroxidase (HRP) labeled anti-mouse immunoglobulin antibody (GE Healthcare) was added and incubated for 1 hour. The wells were washed, then a peroxidase substrate (BD Biosciences) was added and incubated for 30 minutes, and a sulfuric acid solution at a concentration of 0.1 M or higher was added to stop the color development. Whether an antibody that recognizes B7-H4 in a supernatant sample was contained was examined by measuring the absorption of the solution in each well at a wavelength of 450 nm.
# [2] = molecular target: T2, B7-H4 expressed on the membrane surface of cancer cells (human, UniProt Q7Z7D3 25-282); experiment: cell-based or functional assay
# T2 sequence (looked up): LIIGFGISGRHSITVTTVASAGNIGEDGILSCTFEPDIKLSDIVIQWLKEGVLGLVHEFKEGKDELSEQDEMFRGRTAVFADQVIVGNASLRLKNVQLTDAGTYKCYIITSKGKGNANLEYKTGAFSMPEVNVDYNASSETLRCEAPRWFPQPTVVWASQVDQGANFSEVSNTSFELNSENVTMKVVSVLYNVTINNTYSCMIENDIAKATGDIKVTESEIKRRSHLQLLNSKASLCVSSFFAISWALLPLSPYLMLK
Binder,OD 450 nm [1] [OD 450 nm],"50% maximum effective concentration (EC50) of cytotoxicity (% Lysis) to MDA-MB-468 cells, LDH release, with human peripheral blood mononuclear cells, 16 hours [2] [ng/mL]"
"H4.051 (antibody, V domains shown, Mouse hybridoma monoclonal antibody; also called anti-B7-H4 monoclonal antibody produced from hybridoma clone #51) VH: EVQLQQSGAELVRSGASVKLSCTASGFNIKDFYVHWVKQRPEQGLEWIGWIDPAHVDTEYAPKFQGKTTMTADTSSNTAYLQLSSLTSEDSAVYYCNALLPRTMDYWG VL: DVVLTQTPLSLPVNVGDQASISCKSTKSLLNSDGFTYLDWYLQKPGQSPQLLIYLVSNRFSGVPDRFSGSGSGTDFTLKISRVEAEDLGVYYCFQSNYLPYTFG",1.96,
Fab-scFv according to the present invention (bispecific antibody) heavy: not shown light: NIQMTQSPSSLAVSAGEKVTMSCKSSHAVLYSSNQKNYLAWYQQKPGQSPKLLIYWASTRDSGVPDRFTGGGSGTDFTLTITNIQPEDLAVYYCHQYLSSWTFGGGTKVEIKRTVAAPSVFIFPPSDEQLKSGTASVVCLLNNFYPREAKVQWKVDNALQSGNSQESVTGQDSKDSTYSLSSTLALSKADYEKHKVYACEVTHQGLSSPVTKSFNRGEC,,13
"H4.140 (antibody, V domains shown, Mouse hybridoma monoclonal antibody; also called anti-B7-H4 monoclonal antibody produced from hybridoma clone #140) VH: EVQLVESGGDLVKPGGSLKLSCAASGFTFSTYGMSWVRQTPDKRLEWVATISSGGNYTYYPDSVKGRFTISRDNAKNTLYLQMSSLKSEDTAMYYCARPYGNHFDYWG VL: DIQMTQSPASLAASVGETVTITCRASENIYYSLAWYQQKQGKSPQLLIYNANSLEDGVPSRFSGSGSGTQYSMKINSMQPEDTATYFCKQAYDVPYTFG",1.06,
"H4.121 (antibody, V domains shown, Mouse hybridoma monoclonal antibody; also called anti-B7-H4 monoclonal antibody produced from hybridoma clone #121) VH: QVQLQQSGAELMKPGASVKISCKATGYTFSSYWIEWVKQRPGHGLEWIGEILHGSDSTNYNENFKGKATFTADTSSNTAYMRLSSLTSEDSAVYYCASHYYGSSPFAYWG VL: not shown",2.02,
"H4.209 (antibody, V domains shown, Mouse hybridoma monoclonal antibody; also called anti-B7-H4 monoclonal antibody produced from hybridoma clone #209) VH: EVKLVESGGGLVKPGGSLKLSCAASGFTFSNYALSWVRQTPEKRLEWVASISGGGSTYYPDSVKGRFIISRDNARNILYLQMSSLRSEDTAMYYCARGPSYDDYYFDVWG VL: not shown",1.93,
H4.018 (antibody) chain 1: EVKLVESGGGLVKPGGSLKLSCAASGFTFSSYAMSWVRQTPEKRLEWVATISSGGNYTYYPDSVKGRFTISRDNAKNTLYLQMSSLRSEDTAMYYCARHRYDNNYDYYAMD chain 2: NIQMTQSPSSLAVSAGEKVTMSCKSSHAVLYSSNQKNYLAWYQQKPGQSPKLLIYWASTRDSGVPDRFTGGGSGTDFTLTITNIQPEDLAVYYCHQYLSSWTFGGGTKVEIK,1.96,
